Results taken from paper PMC11429640.

Biological target: high-stability mutant of the MMP-9 catalytic domain (MMP9CAT*) lacking the fibronectin-like domain (human) (UniProt P14780)
Assay: enzyme activity inhibition assay (fluorogenic substrate, fit to the Morrison equation); apparent Ki (Ki^app); varying concentrations of N-TIMP2 incubated with 0.26 nM MMP-9CAT* for 60 min at 37 °C in 50 mM Tris-HCl, 0.15 M NaCl, 10 mM CaCl2, 0.02% Brij-35 pH 7.5; then 7.5 µM fluorogenic substrate; at least three assays for each protein

Chain of UniProt P14780 (P14780 other isoform, or with tags, fused parts or gaps mutant): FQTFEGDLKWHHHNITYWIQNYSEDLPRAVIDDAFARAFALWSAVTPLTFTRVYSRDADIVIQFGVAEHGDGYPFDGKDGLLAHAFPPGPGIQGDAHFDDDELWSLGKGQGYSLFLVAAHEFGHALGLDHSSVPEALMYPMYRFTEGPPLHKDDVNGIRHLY

- Ki: 0.32 nM
Substance: WT N-TIMP2 containing internal FLAG-tag, c-myc-tag, and His-tag (domain or fragment)
